Measured values taken from patent US20240076370A1 (Memorial Sloan Kettering, published 2024).
Residue numbers refer to the chain shown, from its start.

Target: T1, human G-protein coupled receptor family C group 5 member D (GPRC5D) (human, UniProt Q9NZD1 1-345)
T1 construct: Overexpressed on 3T3 cells in the FACS assays; also called human GPRC5D; 3T3-GPRC5D
Experiment: FACS, scFv phage clones on 3T3 cells overexpressing GPRC5D

T1 sequence (Q9NZD1 whole entry): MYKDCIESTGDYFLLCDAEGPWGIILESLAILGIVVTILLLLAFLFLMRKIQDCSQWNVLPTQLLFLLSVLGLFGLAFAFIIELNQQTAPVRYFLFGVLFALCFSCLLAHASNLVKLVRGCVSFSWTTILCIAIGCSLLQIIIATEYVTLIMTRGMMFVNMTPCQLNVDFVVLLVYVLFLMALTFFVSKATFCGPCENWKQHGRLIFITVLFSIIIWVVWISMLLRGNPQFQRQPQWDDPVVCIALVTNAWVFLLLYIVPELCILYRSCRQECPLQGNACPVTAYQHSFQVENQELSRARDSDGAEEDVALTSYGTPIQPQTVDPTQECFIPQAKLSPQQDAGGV

B1: ET150-165 scFv (scFv)
scFv: QSALTQPPSASGSPGQSVTISCTGTSSDIGGYNYVSWYQQHPGKAPKLMIYEVNKRPSGVPDRFSGSKSGNTASLTVSGLQAEDEADYYCASFAGRKTLVFGGGTKLTVLGSRGGGGSGGGGSGGGGSLEMAQVQLVQSGAEVKKPGASVKVSCRASGYTFTAYSLHWVRQAPGQGLEWMGWINPSSGGAVYAQKFQGRVTMTRDTSISTAYMELSGLRSDDTAVYYCARNVGGQADDWGQGTLVTVSS
notes: also called ET150-15 scFv
B1: binds.

B2: ET150-167 scFv (scFv)
scFv: B1 scFv with S27T, Q40H, G43S, Q235H
notes: also called ET150-17 scFv
B2: binds.

B3: ET150-026 scFv (scFv)
scFv: AELSYELTQPPSASGTPGQRVSISCSGSSSNIGSNTVNWYQQFPGTAPKLLIHSNNQRPSGVPDRFSGSKSGTSASLAISGPQSEDEADYYCAAWDDSVNGYVFGTGTKVTVLGSRGGGGSGGGGSGGGGSLEMAQLQLQESGGGSVQPGGSLRLSCAASGFTFSNYAMSWVRQAPGKGLEWVSAITNSGRSTYYADSVKGRFTISRDNSKNTLSLQMSSLRAEDTAVYYCARVTHRRYGSTFDSRGQGTLVTVSS
notes: also called ET150-176 scFv
B3: binds.

B4: ET150-032 scFv (scFv)
scFv: AELQSVLTQPPSASGSPGQSLTISCTGTSSDVGGYNHVSWYQQYPGKAPKLMIYEVTKRPSGVPDRFSGSKSGNTASLTVSGLQAEDEADYYCSSYAGSAHWVFGGGTKLTVLGSRGGGGSGGGGSGGGGSLEMAEVQLVQSGAEVKKPGASVKVSCKASGYTFSRYYIHWVRQAPGQGLEWMGWMNPNSGNTGYAQKFQGRVTMTRNTSISTAYMELSSLRSEDTAVYYCARGRYHVIDYWGQGTLVTVSS
notes: also called ET150-182 scFv
B4: binds.

B5: ET150-033 scFv (scFv)
scFv: AELQAVLTQPPSASGTPGQRVTISCSGSSSNIGSNYVYWYQQLPGTAPKLLIYRNNQRPSGVPDRFSGSKSGTSASLAISGLRSEDEADYYCAAWDDSLSGRVFGTGTKVTVLGSRGGGGSGGGGSGGGGSLEMAQLQLVQSGAEVKKPGSSVKVSCKASGYTFNTYYLHWVRQAPGQGLEWMGRINPNNGGTNYAQKFQGRVTMTRDTSINTAYMELSRLRSDDTAVYYCARSYDYWGQGTLVTVSS
notes: also called ET150-183 scFv
B5: binds.

B6: ET150-164 scFv (scFv)
scFv: QSALTQPPSASGSPGQSVTISCTGTSSDVGGYNYVSWYQQHPGKAPKLMIYEVSKRPSGVPDRFSGSKSGNTASLTVSGLQAEDEADYYCSSYAGSNTLVFGGGTKLTVLGSRGGGGSGGGGSGGGGSLEMAQMQLVQSGAEVKKPGASVKVSCKASGYTFTSYYMHWVRQAPGQGLEWMGIINPSGGSTSYAQKFQGRVTMTRDTSTSTVYMELSSLRSEDTAVYYCARAGMGMDTWGQGTLVTVSS
notes: also called ET150-14 scFv
B6: binds.

B7: ET150-172 scFv (scFv)
scFv: B6 scFv with T190S
notes: also called ET150-22 scFv
B7: binds.

B8: ET150-169 scFv (scFv)
scFv: QSVVTQPPSVSAAPGQKVTISCSGSSSNIGNNYVSWYQQLPGTAPKLLIYDNNKRPSGIPDRFSGSKSGTSATLGITGLQTGDEADYYCGTWDSSLSGVVFGGGTKLTVLGSRGGGGSGGGGSGGGGSLEMAQVQLVQSGGEVKKPGASVKVSCKASGFTFNTYGISWVRQAPGQGLEWMGWISANNGHTKSAQRFQDRVAMATDTSTSTAYMELRSLKFDDTAVYYCARGGYHHQMQRYYKATSVYSDYWGQGTLVTVSS
notes: also called ET150-19 scFv
B8: binds.

B9: ET150-154 scFv (scFv)
scFv: QAVLTQPPSASGTPGQRVTISCSGSSSNIGSNYVYWYQQLPGTAPKLLIYRNNQRPSGVPDRFSGSKSGTSASLAISGLRSEDEADYYCAAWDDSLSGYVFGTGTKVTVLGSRGGGGSGGGGSGGGGSLEMAQVQLVQSGAEVQRPGASVRVSCKAIAYTFTDYYIHWVRQAPGQGPEWMGWINPKSGRTQYAPKFQDRVTLARETPISTASMELRGLTSDDTAVYYCARVYGYSRWSGFDLWGQGTLVTVSS
notes: also called ET150-4 scFv
B9: binds.

B10: ET150-153 scFv (scFv)
scFv: QSVLTQPPSVSAAPGQKVTIPCSGSRSNVGNYYVSWYQQLPGTAPKLLIYDNNKRPSGIPDRFSGSKSGTSATLGITGLQTGDEADYFCGTWDGSLSAHVFGTGTKVTVLGSRGGGGSGGGGSGGGGSLEMAQVQLVQSGSELKKPGASVRVSCTASGYTFTSYYMHWVRQAPGQGLEWMGVINPNAGSTRYAQKFQGRVTMSTDTSTSTAYMDLSSLRSEDTAVYYCARGMYRSLLFYDPWGQGTLVTVSS
notes: also called ET150-3 scFv
B10: binds.

B11: ET150-162 scFv (scFv)
scFv: QSALTQPPSASGSPGQSVTISCTGTSRDAGGYNYFSWYQQHPGKAPKLLIYEVTKRPSGVPDRFSGSKSGKTASLTVSGLQADDEAVYYCSSYGGSNNFRVFGGGTKLTVLGSRGGGGSGGGGSGGGGSLEMAEVQLVESGGGVVRPGGSLRLSCAASGFTFGDYGMSWVRQAPGKGLEWVSGINWNGGSTGYADSVKGRFTISRDNAKNSLYLQMNSLRAEDTAVYYCARSKQDYWGQGTLVTVSS
notes: also called ET150-12 scFv
B11: binds.

B12: ET150-171 scFv (scFv)
scFv: QSALTQPASVSGSPGQSITISCTGTSSDVGGYNFVSWYQQHPGKAPKVMIYDVSKRPSGISNRFSGSKSGNTASLTISGLQVEDEAEYYCSSYTSTRTVIFAGGTKVTVLGSRGGGGSGGGGSGGGGSLEMAQVQLVQSGAEVKKPGASVKVSCKASGYTFTSYYMHWVRQAPGQGLEWMGIINPSGGSTRYAQKFQGRVTMTRDTSTSTVYMELSSLRSEDTAVYYCARGSSRWGGWTGDYWGQGTLVTVSS
notes: also called ET150-21 scFv
B12: binds.

B13: ET150-163 scFv (scFv)
scFv: QSVVTQPPSVSGAPGQRVTISCTGSSSNIGAGYDVHWYQQLPGTAPKLLIYGNSNRPSGVPDRFSGSKSGTSASLAITGLQAEDEADYYCQSYDSSLSGSYVFGTGTKLTVLGSRGGGGSGGGGSGGGGSLEMAEVQLVETGGNLVQPGASLRLSCAASGFSFSGTAMHWVRQAPGKGLEWVSTISSTGRSTYYRDSVKGRFTISRDNSKNTLYLQMNSLRGEDTAVYYCARVSFDYWGQGTLVTVSS
notes: also called ET150-13 scFv
B13: binds.

B14: ET150-173 scFv (scFv)
scFv: QSALTQPASVSGSPGQSITISCTGTSSDVGGYNYVSWYQQSPGKAPRLMIYGVSKRPSGVPDRFSGSKSGNTASLTVSGLQAEDEADYYCSSYAGVNNLMFGGGTKLTVLGSRGGGGSGGGGSGGGGSLEMAQVQLVQSGAEVKKPGASVKVSCKASGYTFTSYYMHWVRQAPGQGLEWMGIINPSGGSTSYAQKFQGRVTMTRDTSTSTVYMELSSLRSEDTAVYYCARDVISGFDSWGQGTLVTVSS
notes: also called ET150-23 scFv
B14: binds.

B15: ET150-166 scFv (scFv)
scFv: NFMLTQPHSVSESPGKTVSISCTRTSGAIAGAYVQWFQQRPGSAPTTVIYDDNKRPSGVPDRFSGSIDKSSNSASLTISGLKTEDEADYYCQSYDYDSSNVLFGGGTKLTVLGSRGGGGSGGGGSGGGGSLEMAEVQLVESGGGLVQPGGSLRLSCAASGFTFSNYAMSWVRQAPGKGLEWVSAISGSGNTYYADSVKGRFTISRDNSKNTLYLQMNSLRAEDTAVYYCARGSVRYTDIWGQGTLVTVSS
notes: also called ET150-16 scFv
B15: binds.

B16: ET150-031 scFv (scFv)
scFv: AELQSVVTQPPSVSAAPGQRVTISCSGGSSNIGNNYVSWFQQLPRTAPKLLIYDNNKRPSGIPDRFSGSKSGTSAALDITVLQTGDEADYYCGTWDSSLRNWVFGGGTKLTVLGSRGGGGSGGGGSGGGGSLEMAQMQLVQSGAEVKKPGASVKVSCKASGYTFTSYYMHWVRQAPGQGLEWMGIINPSGGSTSYAQKFQGRVTMTRDTSTSTVYMELSSLRSEDTAVYYCARGQKYHSQYSRGGTGGGMTQDMWGQGTLVTVSS
notes: also called ET150-181 scFv
B16: binds.

B17: ET150-161 scFv (scFv)
scFv: SYVLTQPPSASGTPGQRVTISCSGSSSNIGSNTVNWYQQLPGTAPKLLIYRNNQRPSGVPDRFSGSKSGTSASLAISGLRSEDEADYYCAAWDDSLSGLFGTGTKVTVLGSRGGGGSGGGGSGGGGSLEMAQMQLVQSGAEVKKPGASVKVSCKASEYTFTRHILHWVRQAPGQSLEWMGWINPGNGNTKYSQKFQVRVTFTRDTSASTVYMELSSLRSEDTAVYYCARLPDQWGQGTLVTVSS
notes: also called ET150-11 scFv
B17: binds.

B18: ET150-156 scFv (scFv)
scFv: QSALTQPASVSGSPGQSITISCTGTSRDVGGYNYVSWYQQYPGKAPKLMIYEVSKRPSGVSNRFSGSKSGNTASLTISGLQAEDEADYYCSSYTSSSTLDFGTGTKVTVLGSRGGGGSGGGGSGGGGSLEMAQVQLVQSGAEVKQPGASVKVSCQASGYTFTTYYMHWVRQAPGQGLEWMGIINPNGGGTFYAQKFQDRVTMTRDTSTGTVYMELSSLRSDDTAVYYCARGHKVYKSHPTGGYDRWGQGTLVTVSS
notes: also called ET150-6 scFv
B18: binds.

B19: ET150-030 scFv (scFv)
scFv: AELQSVLTQPPSVSGAPGQRVTISCTGSSSNIGAGYDVHWYQQLPGRAPKLLIYGNSNRPSGVPDRFSGSKSGTSASLAITGLQAEDEADYYCQSYDSSLRGYVFGTGTKVTVLGSRGGGGSGGGGSGGGGSLEMAQVQLVQSGGGVVQPGRSLRLSCAASGFSFSGTAMHWVRQAPGKGLEWVSTISSTGRSTYYRDSVKGRFTISRDNSKNTLYLQMNSLRGEDTAVYYCARPVSSMTLSIQSDGWGQGTLVTVSS
notes: also called ET150-180 scFv
B19: binds.

B20: ET150-160 scFv (scFv)
scFv: QSALTQPASVSGSPGQSITISCTGTSSDVGGYNYVSWYQQHPGKAPKLMIYDVSKRPSGVSNRFSGSKSGNTASLTISGLQAEDEADYYCSSYTRSSTEVFGGGTKLTVLGSRGGGGSGGGGSGGGGSLEMAEVQLVQSGAEVKKPGASVKVSCKASGYTFTSYYMHWVRQAPGQGLEWMGIINPSGGSTSYAQKFQGRVTMTRDTSTSTVYMELSSLRSEDTAVYYCARGGSKKWSGEKWRRENFDYWGQGTLVTVSS
notes: also called ET150-10 scFv
B20: binds.

B21: ET150-028 scFv (scFv)
scFv: AELQPVLTQPPSASGTPGQRVTISCSGSSSNIGGNTVSWYQQVPGTAPRLLIFRNNQRPPGVPDRFSGSKSGTSASLAISGLRSEDEADYYCAAWDASRQGVFGGGTKLTVLGSRGGGGSGGGGSGGGGSLEMAQVQLVQSGAEVKKPGSSVKVSCKASGGTFRSYAITWVRQAPGQGLEWMGRIIPMLDITNYAQKFQGRVTITADKSTSTAYMELSSLRSEDTAVYYCARTYSRSPFHMEDFWGQGTLVTVSS
notes: also called ET150-178 scFv
B21: binds.
